Drawing on paper PMC12674617, this text covers ratio to parent for three variants.

The labels stand for the following.
B1: full-length BICD2 tagged on the C-terminus with mini-TurboID (BICD2-mTrbo) [human] / Dynein intermediate chain (DYNC1I1) [human (endogenous in HEK293)] (parent)
chain 1: MSAPSEEEEYARLVMEAQPEWLRAEVKRLSHELAETTREKIQAAEYGLAVLEEKHQLKLQFEELEVDYEAIRSEMEQLKEAFGQAHTNHKKVAADGESREESLIQESASKEQYYVRKVLELQTELKQLRNVLTNTQSENERLASVAQELKEINQNVEIQRGRLRDDIKEYKFREARLLQDYSELEEENISLQKQVSVLRQNQVEFEGLKHEIKRLEEETEYLNSQLEDAIRLKEISERQLEEALETLKTEREQKNSLRKELSHYMSINDSFYTSHLHVSLDGLKFSDDAAEPNNDAEALVNGFEHGGLAKLPLDNKTSTPKKEGLAPPSPSLVSDLLSELNISEIQKLKQQLMQMEREKAGLLATLQDTQKQLEHTRGSLSEQQEKVTRLTENLSALRRLQASKERQTALDNEKDRDSHEDGDYYEVDINGPEILACKYHVAVAEAGELREQLKALRSTHEAREAQHAEEKGRYEAEGQALTEKVSLLEKASRQDRELLARLEKELKKVSDVAGETQGSLSVAQDELVTFSEELANLYHHVCMCNNETPNRVMLDYYREGQGGAGRTSPGGRTSPEARGRRSPILLPKGLLAPEAGRADGGTGDSSPSPGSSLPSPLSDPRREPMNIYNLIAIIRDQIKHLQAAVDRTTELSRQRIASQELGPAVDKDKEALMEEILKLKSLLSTKREQITTLRTVLKANKQTAEVALANLKSKYENEKAMVTETMMKLRNELKALKEDAATFSSLRAMFATRCDEYITQLDEMQRQLAAAEDEKKTLNSLLRMAIQQKLALTQRLELLELDHEQTRRGRAKAAPKTKPATPSL
chain 2: MSDKSDLKAELERKKQRLAQIREEKKRKEEERKKKEADMQQKKEPVQDDSDLDRKRRETEALLQSIGISPEPPLVQPLHFLTWDTCYFHYLVPTPMSPSSKSVSTPSEAGSQDSGDLGPLTRTLQWDTDPSVLQLQSDSELGRRLHKLGVSKVTQVDFLPREVVSYSKETQTPLATHQSEEDEEDEEMVESKVGQDSELENQDKKQEVKEAPPRELTEEEKQQILHSEEFLIFFDRTIRVIERALAEDSDIFFDYSGRELEEKDGDVQAGANLSFNRQFYDEHWSKHRVVTCMDWSLQYPELMVASYNNNEDAPHEPDGVALVWNMKFKKTTPEYVFHCQSSVMSVCFARFHPNLVVGGTYSGQIVLWDNRSHRRTPVQRTPLSAAAHTHPVYCVNVVGTQNAHNLITVSTDGKMCSWSLDMLSTPQESMELVYNKSKPVAVTGMAFPTGDVNNFVVGSEEGTVYTACRHGSKAGIGEVFEGHQGPVTGINCHMAVGPIDFSHLFVTSSFDWTVKLWTTKHNKPLYSFEDNADYVYDVMWSPVHPALFACVDGMGRLDLWNLNNDTEVPTASVAIEGASALNRVRWAQAGKEVAVGDSEGRIWVYDVGELAVPHNDEWTRFARTLVEIRANRADSEEEGTVELSA

Variants of B1 are the subject of the experiment. As to the kind of experiment: co-immunoprecipitation (V5 trap beads) with western blot quantification. The note with it: parent: 1, read off a plot. For orientation: A western blot detects proteins with antibodies after separation by electrophoresis.
Turning to chain 1 R694C, the ratio to parent was determined as 5.1.
On to chain 1 N188T, for which the ratio to parent came out at 1.8.
As for chain 1 R747C, the ratio to parent came out at 4.6.
